This note sets out measurements from the Immune Epitope Database (IEDB).

Assay [1] concerns the target HLA-B*40:01. Put plainly: IEDB peptide-MHC binding, purified MHC/direct/fluorescence; filed as Kd, often an IC50 or EC50 that approximates it; ≥ and ≤ were set here for values at or beyond the usual limits of such assays. Particulars: source organism: Giardia lamblia ATCC 50803.
Assay [2] deals with HLA-B*15:01. The description is as above. Particulars: source organism: Giardia lamblia ATCC 50803.
The target in assay [3] is HLA-B*58:01. The description is as above. The settings on record: source organism: Giardia lamblia ATCC 50803.
Assay [4] has as its target HLA-A*24:02. The description is as above. The settings on record: source organism: Giardia lamblia ATCC 50803.
The target in assay [5] is HLA-B*18:01. The description is as above. Particulars: source organism: Giardia lamblia ATCC 50803.
Assay [6] deals with HLA-B*07:02. The assay is described as above. The settings on record: source organism: Giardia lamblia ATCC 50803.
The target in assay [7] is HLA-A*01:01. The assay is described as above. The settings on record: source organism: Giardia lamblia ATCC 50803.
Assay [8] concerns the target HLA-A*03:01. The assay is described as above. Particulars: source organism: Giardia lamblia ATCC 50803.
In assay [9] the target is HLA-A*02:01. Described as above. Particulars: source organism: Giardia lamblia ATCC 50803.
For assay [10], the target named is HLA-B*44:02. Described as above. Particulars: source organism: Giardia lamblia ATCC 50803.
The target in assay [11] is HLA-A*02:16. The description is as above. Particulars: source organism: Giardia lamblia ATCC 50803.
Assay [12] deals with HLA-B*08:02. The description is as above. The settings on record: source organism: Giardia lamblia ATCC 50803.
For assay [13], the target named is HLA-B*27:05. The assay is described as above. The settings on record: source organism: Giardia lamblia ATCC 50803.
Assay [14] concerns the target HLA-B*46:01. The description is as above. The settings on record: source organism: Giardia lamblia ATCC 50803.
Assay [15] has as its target HLA-A*11:01. The description is as above. The settings on record: source organism: Giardia lamblia ATCC 50803.
Assay [16] concerns the target HLA-A*02:06. The assay is described as above. Particulars: source organism: Giardia lamblia ATCC 50803.
The target in assay [17] is HLA-A*02:12. Described as above. The settings on record: source organism: Giardia lamblia ATCC 50803.
In assay [18] the target is HLA-A*02:11. Described as above. Particulars: source organism: Giardia lamblia ATCC 50803.
Assay [19] concerns the target HLA-A*31:01. The assay is described as above. The settings on record: source organism: Giardia lamblia ATCC 50803.
The target in assay [20] is HLA-A*02:03. Nature of the assay: IEDB peptide-MHC binding, purified MHC/competitive/fluorescence; filed as Kd, often an IC50 or EC50 that approximates it; ≥ and ≤ were set here for values at or beyond the usual limits of such assays. The settings on record: source organism: Giardia lamblia ATCC 50803.
The target in assay [21] is HLA-B*58:01. Nature of the assay: IEDB peptide-MHC binding, purified MHC/competitive/fluorescence; ≥ and ≤ were set here for values at or beyond the usual limits of such assays. Particulars: source organism: Rattus norvegicus.
Assay [22] concerns the target HLA-A*24:02. Described as above. Particulars: source organism: Rattus norvegicus.
Assay [23] has as its target HLA-B*18:01. The assay is described as above. The settings on record: source organism: Rattus norvegicus.
Assay [24] deals with HLA-B*07:02. Described as above. Particulars: source organism: Rattus norvegicus.
The target in assay [25] is HLA-B*40:02. Described as above. The settings on record: source organism: Rattus norvegicus.
Assay [26] has as its target HLA-A*01:01. The assay is described as above. The settings on record: source organism: Rattus norvegicus.
The target of assay [27] is HLA-B*35:01. The description is as above. The settings on record: source organism: Rattus norvegicus.
For assay [28], the target named is HLA-B*37:01. The description is as above. The settings on record: source organism: Rattus norvegicus.
Assay [29] addresses HLA-A*03:01. The description is as above. Particulars: source organism: Rattus norvegicus.
Assay [30] addresses HLA-B*44:03. The description is as above. Particulars: source organism: Rattus norvegicus.
For assay [31], the target named is HLA-A*02:01. The description is as above. Particulars: source organism: Rattus norvegicus.
The target of assay [32] is HLA-B*14:02. The assay is described as above. Particulars: source organism: Rattus norvegicus.
The target of assay [33] is HLA-A*11:01. The assay is described as above. The settings on record: source organism: Rattus norvegicus.
The target of assay [34] is HLA-A*25:01. Described as above. Particulars: source organism: Rattus norvegicus.
Assay [35] has as its target HLA-B*53:01. The assay is described as above. Particulars: source organism: Rattus norvegicus.
In assay [36] the target is HLA-A*68:02. Described as above. Particulars: source organism: Rattus norvegicus.
Assay [37] concerns the target HLA-A*29:02. The assay is described as above. Particulars: source organism: Rattus norvegicus.
Assay [38] concerns the target HLA-B*08:01. The description is as above. The settings on record: source organism: Rattus norvegicus.
For assay [39], the target named is HLA-A*31:01. The description is as above. Particulars: source organism: Rattus norvegicus.
For assay [40], the target named is HLA-B*51:01. The assay is described as above. Particulars: source organism: Rattus norvegicus.
In assay [41] the target is HLA-B*58:01. Nature of the assay: IEDB peptide-MHC binding, purified MHC/competitive/fluorescence; filed as Kd, often an IC50 or EC50 that approximates it; ≥ and ≤ were set here for values at or beyond the usual limits of such assays. Particulars: source organism: Entamoeba dispar SAW760.
The target in assay [42] is HLA-A*66:01. The description is as above. Particulars: source organism: Entamoeba dispar SAW760.
Assay [43] has as its target HLA-B*07:02. The description is as above. Particulars: source organism: Entamoeba dispar SAW760.
Assay [44] concerns the target HLA-A*01:01. Described as above. The settings on record: source organism: Entamoeba dispar SAW760.
Assay [45] has as its target HLA-A*30:01. The assay is described as above. Particulars: source organism: Entamoeba dispar SAW760.
In assay [46] the target is HLA-B*44:02. The description is as above. Particulars: source organism: Entamoeba dispar SAW760.
Assay [47] has as its target HLA-A*30:02. Described as above. The settings on record: source organism: Entamoeba dispar SAW760.
Assay [48] has as its target HLA-B*14:02. The assay is described as above. The settings on record: source organism: Entamoeba dispar SAW760.
Assay [49] has as its target HLA-B*27:05. The description is as above. Particulars: source organism: Entamoeba dispar SAW760.
Assay [50] concerns the target HLA-A*11:01. Described as above. Particulars: source organism: Entamoeba dispar SAW760.
Assay [51] addresses HLA-B*53:01. Described as above. The settings on record: source organism: Entamoeba dispar SAW760.
For assay [52], the target named is HLA-B*08:01. The assay is described as above. Particulars: source organism: Entamoeba dispar SAW760.

In the case of HCIDKTPGL, the Kd in assay [1], in assay [2], in [3], in assay [4], in assay [5] and in assay [6] was at least 20 µM in each case. In addition, the Kd in assay [7] was at least 20 µM; in [8], at least 20 µM; in [9], 0.319 µM; in [10], at least 20 µM; in [11] it was 0.39 µM; in assay [12] it was at least 20 µM. The Kd is at least 20 µM in assay [13]; at least 20 µM in [14]; at least 20 µM in [15]; 0.106 µM in [16]; 0.26 µM in assay [17]; 0.914 µM in assay [18]. In addition, the values for the Kd in [19] and in assay [20] were at least 20 µM and 2.48 µM, respectively.
In the case of SLLERGQQLGV, the IC50 in [21] was at least 20 µM; in assay [22], 6.08 µM; in assay [23], at least 20 µM; in assay [24], at least 20 µM; in assay [25] it was at least 20 µM; in [26] it was at least 20 µM. The IC50 in assay [27] is at least 20 µM; in assay [28] it was at least 20 µM; in assay [29], at least 20 µM; in [30], at least 20 µM; in [31], 0.0187 µM; in [32], at least 20 µM. The IC50 in [33] was at least 20 µM; in assay [34], at least 20 µM; in assay [35], at least 20 µM; in assay [36], 0.914 µM; in assay [37] it was 17.8 µM; in assay [38], at least 20 µM. In addition, the IC50 in assay [39] and in assay [40] was at least 20 µM each time.
Regarding SQYDPKELL, the Kd in [41], in assay [42], in [43], in assay [44], in assay [45] and in [46] was at least 5 µM each time. Further, the Kd in [47], in assay [48], in assay [49], in assay [50], in assay [51] and in assay [52] was at least 5 µM throughout.
